Target: trigger factor (TF) (E. coli) (UniProt P0A850)
Assay: SPR; TF immobilised on a CM5 chip by amine coupling, analytes injected at 20 μL/min for 90 s; Biacore X, 22 °C; 10 mM HEPES pH 7.5, 150 mM NaCl, 3 mM EDTA, 0.005% P20; steady-state response against concentration, one-site Langmuir model; apparent Kd for ClpX

Sequence of trigger factor (TF) (E. coli) (P0A850 whole entry): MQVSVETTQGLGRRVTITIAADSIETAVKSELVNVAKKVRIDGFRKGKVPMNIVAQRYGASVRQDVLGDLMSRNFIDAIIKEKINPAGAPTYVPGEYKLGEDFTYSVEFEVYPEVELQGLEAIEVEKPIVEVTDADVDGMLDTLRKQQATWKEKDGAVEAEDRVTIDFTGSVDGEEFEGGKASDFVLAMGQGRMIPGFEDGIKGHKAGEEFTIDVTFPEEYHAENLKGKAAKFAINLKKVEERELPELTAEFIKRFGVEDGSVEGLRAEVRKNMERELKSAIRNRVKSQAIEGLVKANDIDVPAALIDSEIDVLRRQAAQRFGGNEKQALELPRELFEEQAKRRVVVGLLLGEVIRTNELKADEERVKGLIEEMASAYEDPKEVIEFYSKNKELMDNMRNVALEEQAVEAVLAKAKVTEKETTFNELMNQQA

Kd: 2000 nM
Substance: ClpX∆ZBD (AAA+ domain of ClpX) (domain or fragment)
